The target of test [1] is T1, TGF-β1蛋白 (UniProt P01137 279-390). In words: cell-based or functional assay.
Another test addresses T2, VEGF-A165 (UniProt P15692-4 27-191).
T2 construct: Isoform VEGF-A165; also called VEGF蛋白
The test can be described thus: ELISA, VEGF coated at 100 ng/well, HRP goat anti-human Fab detection. On the technique in general: In an ELISA, binding on a coated surface is turned into a signal by an enzyme label.

Test [2] concerns the target T1, TGF-β1蛋白. In words: ELISA, TGF-β1 coated at 100 ng/well, HRP goat anti-human Fab detection.

T1 sequence (P01137 279-390 limits assumed): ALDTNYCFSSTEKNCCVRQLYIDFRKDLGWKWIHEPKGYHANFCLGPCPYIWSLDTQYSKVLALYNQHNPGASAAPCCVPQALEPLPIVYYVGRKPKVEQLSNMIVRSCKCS
T2 sequence (P15692 other isoform, or with tags, fused parts or gaps limits assumed): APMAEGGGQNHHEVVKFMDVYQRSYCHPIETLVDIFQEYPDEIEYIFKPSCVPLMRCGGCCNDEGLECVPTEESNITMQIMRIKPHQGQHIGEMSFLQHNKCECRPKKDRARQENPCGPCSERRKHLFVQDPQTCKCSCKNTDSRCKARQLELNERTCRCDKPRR

B1: 抗TGF-β单抗12.7 (antibody, human IgG4 S228P, kappa, V domains shown)
VH: QVQLVQSGAEVKKPGASVKVSCKASGYTFTSEWMNWVRQAPGQGLEWMGQIFPALGSTNYNEMYEGRVTMTTDTSTSTAYMELRSLRSDDTAVYYCARGIGNYALDAMDYWGQGTLVTVSS
VL: DIQMTQSPSSLSASVGDRVTITCRASESVDFYGNSFMHWYQQKPGKAPKLLIYLASNLESGVPSRFSGSGSGTDFTLTISSLQPEDFATYYCQQNIEDPLTFGGGTKVEIKR
notes: also called mAb127
In general, EC50 refers to the concentration giving half of the maximal effect. Take B1: in the test with TGF-β1蛋白 [1], the “SMAD3报告基因抑制实验 IC50” value turned out to be 0.337 nM. Moreover, the binding result with VEGF-A165 is on record as “no binding (tested: 200nM)”. The molecule further yielded an EC50 with TGF-β1蛋白 [2] of 0.202 nM.
